Binding result and EC50 data for 1 molecule are collected here from patent US11377503.

Residue numbers refer to the chain shown, from its start.

One assay has as its target T1, CD39 mutant 19 (human, UniProt P49961).
T1 chain: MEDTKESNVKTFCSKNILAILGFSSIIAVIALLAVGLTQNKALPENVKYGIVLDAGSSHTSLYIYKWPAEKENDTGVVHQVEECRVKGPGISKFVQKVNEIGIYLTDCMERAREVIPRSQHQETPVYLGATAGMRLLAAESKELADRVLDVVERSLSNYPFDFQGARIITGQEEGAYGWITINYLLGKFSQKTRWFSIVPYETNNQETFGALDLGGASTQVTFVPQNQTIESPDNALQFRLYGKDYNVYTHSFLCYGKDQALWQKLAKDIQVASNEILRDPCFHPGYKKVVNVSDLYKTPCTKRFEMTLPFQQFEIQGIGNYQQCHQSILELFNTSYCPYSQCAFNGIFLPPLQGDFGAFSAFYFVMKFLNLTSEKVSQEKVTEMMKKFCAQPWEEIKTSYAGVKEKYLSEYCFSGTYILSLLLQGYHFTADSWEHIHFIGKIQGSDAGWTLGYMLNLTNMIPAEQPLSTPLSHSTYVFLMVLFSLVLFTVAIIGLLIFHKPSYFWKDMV
In words: FACS. (In general: A flow cytometer gives signals particle by particle.)

Another assay addresses T2, murine CD39 (CHO-moCD39) (mouse, UniProt P55772).
T2 chain: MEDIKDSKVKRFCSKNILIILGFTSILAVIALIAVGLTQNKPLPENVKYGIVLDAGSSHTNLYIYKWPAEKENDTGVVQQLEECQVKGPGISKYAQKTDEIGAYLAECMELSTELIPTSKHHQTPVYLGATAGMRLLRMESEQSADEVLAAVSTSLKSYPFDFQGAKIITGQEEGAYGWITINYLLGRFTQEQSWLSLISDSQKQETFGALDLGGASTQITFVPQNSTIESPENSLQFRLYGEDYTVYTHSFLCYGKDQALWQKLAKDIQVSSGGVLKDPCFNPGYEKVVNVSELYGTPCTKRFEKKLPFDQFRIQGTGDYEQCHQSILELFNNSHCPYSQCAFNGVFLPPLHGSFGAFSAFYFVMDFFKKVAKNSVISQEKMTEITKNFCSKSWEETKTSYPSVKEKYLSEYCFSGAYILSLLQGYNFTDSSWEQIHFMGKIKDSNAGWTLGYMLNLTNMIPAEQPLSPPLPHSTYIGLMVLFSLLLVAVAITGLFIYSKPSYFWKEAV
In words: FACS.

The target in another assay is T3, CD39-L3 (ENTPD3) (human, UniProt O75355).
T3 chain: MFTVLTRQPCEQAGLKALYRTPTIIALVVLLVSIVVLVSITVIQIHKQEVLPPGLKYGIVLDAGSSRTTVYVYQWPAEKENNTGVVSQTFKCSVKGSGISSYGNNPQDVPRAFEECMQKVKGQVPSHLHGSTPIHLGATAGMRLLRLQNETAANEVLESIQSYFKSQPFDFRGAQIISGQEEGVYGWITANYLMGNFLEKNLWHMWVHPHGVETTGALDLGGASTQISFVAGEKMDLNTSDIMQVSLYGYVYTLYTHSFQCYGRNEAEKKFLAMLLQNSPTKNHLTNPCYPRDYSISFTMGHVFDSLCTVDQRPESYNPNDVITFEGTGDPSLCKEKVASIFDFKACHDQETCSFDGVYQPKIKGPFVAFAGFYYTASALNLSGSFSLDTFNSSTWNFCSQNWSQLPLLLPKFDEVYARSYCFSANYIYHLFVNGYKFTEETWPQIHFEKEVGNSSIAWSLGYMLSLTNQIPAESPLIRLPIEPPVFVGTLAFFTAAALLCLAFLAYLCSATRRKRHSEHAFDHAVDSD
The assay can be described thus: ELISA. (In an ELISA, binding on a coated surface is turned into a signal by an enzyme label.)

The target of another assay is T4, CD39-L2 (ENTPD6) (human, UniProt O75354).
T4 chain: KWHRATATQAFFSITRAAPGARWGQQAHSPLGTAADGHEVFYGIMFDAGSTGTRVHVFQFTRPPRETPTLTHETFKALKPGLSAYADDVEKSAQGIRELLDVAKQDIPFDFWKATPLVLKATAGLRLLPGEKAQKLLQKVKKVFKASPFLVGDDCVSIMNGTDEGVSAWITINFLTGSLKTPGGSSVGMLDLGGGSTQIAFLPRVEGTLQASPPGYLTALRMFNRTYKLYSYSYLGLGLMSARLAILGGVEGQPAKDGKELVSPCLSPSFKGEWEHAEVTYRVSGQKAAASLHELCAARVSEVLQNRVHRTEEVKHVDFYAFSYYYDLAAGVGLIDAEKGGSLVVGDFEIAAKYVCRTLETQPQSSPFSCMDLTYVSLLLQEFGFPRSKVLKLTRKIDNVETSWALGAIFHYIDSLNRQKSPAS
The assay can be described thus: ELISA.

In a further assay the target is T5, CD39-L4 (ENTPD5) (human, UniProt O75356).
T5 chain: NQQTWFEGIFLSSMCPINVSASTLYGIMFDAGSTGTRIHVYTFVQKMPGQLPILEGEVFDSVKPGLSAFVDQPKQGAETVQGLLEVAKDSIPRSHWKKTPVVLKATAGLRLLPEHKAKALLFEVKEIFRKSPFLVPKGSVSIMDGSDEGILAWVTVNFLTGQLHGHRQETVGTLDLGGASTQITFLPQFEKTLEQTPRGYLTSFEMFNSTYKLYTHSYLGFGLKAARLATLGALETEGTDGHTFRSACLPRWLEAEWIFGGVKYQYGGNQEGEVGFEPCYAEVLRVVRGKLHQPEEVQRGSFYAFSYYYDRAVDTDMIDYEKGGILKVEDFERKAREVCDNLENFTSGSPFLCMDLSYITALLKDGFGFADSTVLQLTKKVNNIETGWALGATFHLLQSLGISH
The assay can be described thus: ELISA.

The target in assay [1] is T6, human CD39 (Ramos cells) (human, UniProt P49961).
T6 chain: T1 chain with A138R, A139M, K142E
The assay can be described thus: FACS, Ramos cells, first experiment.

In another assay the target is T7, CD39-L1 (ENTPD2) (human, UniProt Q9Y5L3).
T7 chain: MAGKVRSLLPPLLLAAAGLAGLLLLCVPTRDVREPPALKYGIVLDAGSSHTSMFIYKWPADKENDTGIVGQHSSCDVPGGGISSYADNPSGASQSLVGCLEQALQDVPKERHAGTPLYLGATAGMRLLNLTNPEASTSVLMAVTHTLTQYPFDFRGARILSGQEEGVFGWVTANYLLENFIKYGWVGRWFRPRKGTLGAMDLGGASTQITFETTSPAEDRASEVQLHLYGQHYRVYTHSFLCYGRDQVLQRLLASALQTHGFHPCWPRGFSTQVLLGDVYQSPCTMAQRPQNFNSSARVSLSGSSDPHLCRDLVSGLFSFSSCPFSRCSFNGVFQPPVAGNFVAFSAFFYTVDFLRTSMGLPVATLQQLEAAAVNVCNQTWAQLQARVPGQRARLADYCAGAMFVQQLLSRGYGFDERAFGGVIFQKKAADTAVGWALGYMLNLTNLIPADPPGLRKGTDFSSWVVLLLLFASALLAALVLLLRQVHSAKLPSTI
The assay can be described thus: ELISA.

The target of assay [2] is T6, human CD39 (Ramos cells). The assay can be described thus: FACS, Ramos cells, second experiment.

B1: I-394 (antibody, V domains shown)
VH: EVKLQQSGPELVKPGASVKMSCKASGYTFTDYNMHWVKQSPGRTLEWIGYIVPLNGGSTFNQKFKGRATLTVNTSSRTAYMELRSLTSEDSAAYYCARGGTRFAYWGQGTLVTVSA
VL: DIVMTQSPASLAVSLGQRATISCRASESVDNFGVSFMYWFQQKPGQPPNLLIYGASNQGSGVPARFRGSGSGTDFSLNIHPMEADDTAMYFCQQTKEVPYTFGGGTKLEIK
On to B1, for which the binding result with CD39 mutant 19, in the assay with murine CD39 (CHO-moCD39), in the assay with CD39-L3 (ENTPD3), with CD39-L2 (ENTPD6), in the assay with CD39-L4 (ENTPD5) and with CD39-L1 (ENTPD2) was “no binding” throughout. Moreover, the results for the EC50 with human CD39 (Ramos cells) [1] and with human CD39 (Ramos cells) [2] were 0.16 mg/L and 0.19 mg/L, respectively.

By EC50 is commonly meant the concentration giving half of the maximal effect.
